Reference: patent publication US20240034774A1 (Gilead, published 2024)
Where a chain is given by its changes, count along the chain named.

B1: 1.2.1-1 (antibody, human IgG1, kappa)
heavy: QVQLLQSGAEVKKPGASVRVSCEASGYNIRDYFIHWWRQAPGQGLQWVGWINPKTGQPNNPRQFQGRVSLTRHASWDFDTFSFYMDLKALRSDDTAVYFCARQRSDYWDFDVWGSGTMVTVSSASTKGPSVFPLAPSSKSTSGGTAALGCLVKDYFPEPVTVSWNSGALTSGVHTFPAVLQSSGLYSLSSVVTVPSSSLGTQTYICNVNHKPSNTKVDKKVEPKSCDKTHTCPPCPAPELLAGPDVFLFPPKPKDTLMISRTPEVTCVVVDVSHEDPEVKFNWYVDGVEVHNAKTKPREEQYNSTYRVVSVLTVLHQDWLNGKEYKCKVSNKALPLPEEKTISKAKGQPREPQVYTLPPSREEMTKNQVSLTCLVKGFYPSDIAVEWESNGQPENNYKTTPPVLDSDGSFFLYSKLTVDKSRWQQGNVFSCSVLHEALHSHYTQKSLSLSPGK
light: DIQMTQSPSSLSASVGDTVTITCQANGYLNWYQQRRGKAPKLLIYDGSKLERGVPSRFSGRRWGQEYNLTINNLQPEDIATYFCQVYEFVVPGTRLDLKRTVAAPSVFIFPPSDEQLKSGTASVVCLLNNFYPREAKVQWKVDNALQSGNSQESVTEQDSKDSTYSLSSTLTLSKADYEKHKVYACEVTHQGLSSPVTKSFNRGEC
B2: 1.13.15-1 (antibody, human IgG1, kappa)
heavy: B1 heavy with E10A, K12T, I34M, W37V, M118Q
light: B1 light with V90F
B3: 1.9.1-1 (antibody, human IgG1, kappa)
heavy: B1 heavy with L5V, E23K, M118Q
light: B1 light
B4: 1.6.1-1 (antibody, human IgG1, kappa)
heavy: B1 heavy with K12T, M118Q
light: B1 light
B5: 1.13.17-1 (antibody, human IgG1, kappa, V domains shown)
VH: QVQLLQSGAAVTKPGASVRVSCEASGYNIRDYFMHWVRQAPGQGLQWVGWINPKTGQPNNPRQFQGRVSLTRHASWDFDTFSFYMDLKALRSDDTAVYFCARQRSDYWDFDVWGSGTQVTVSS
VL: DIQMTQSPSSLSASVGDTVTITCQANGYLNWYQQRRGKAPKLLIYDGSKLERGVPSRFSGRRWGQEYNLTINNLQPEDIATYFCQVYEFFGPGTRLDLKR
B6: 1.7.1-1 (antibody, human IgG1, kappa)
heavy: B1 heavy with M118Q
light: B1 light
B7: 1.8.1-1 (antibody, human IgG1, kappa)
heavy: B1 heavy with L5V, K12T, M118Q
light: B1 light
B8: 1.14.17-1 (antibody, human IgG1, kappa, V domains shown)
VH: B5 VH with F83A
VL: B5 VL
B9: 1.12.15-1 (antibody, human IgG1, kappa)
heavy: B1 heavy with E10A, K12T, W37V, M118Q
light: B1 light with V90F
B10: 1.12.17-1 (antibody, human IgG1, kappa, V domains shown)
VH: B5 VH with M34I
VL: B5 VL
B11: 1.11.1-1 (antibody, human IgG1, kappa)
heavy: B1 heavy with E10A, K12T, I34M, F83A, M118Q
light: B1 light
B12: 1.4.1-1 (antibody, human IgG1, kappa)
heavy: B1 heavy with L5V, E10A, K12T, M118Q
light: B1 light
B13: 1.5.1-1 (antibody, human IgG1, kappa)
heavy: B1 heavy with L5V, E10A, K12T, E23K, M118Q
light: B1 light
B14: 1.10.1-1 (antibody, human IgG1, kappa)
heavy: B1 heavy with E10A, K12T, I34M, M118Q
light: B1 light
B15: 1.3.1-1 (antibody, human IgG1, kappa)
heavy: B1 heavy with Q3S, E10A, K12T, M118Q
light: B1 light

Key:
BSA = BSA (UniProt P02769 25-607); test: single-point ELISA, BSA control
gp120 Bal = gp120 Bal (HIV (Bal)); test: single-point ELISA at EC50 conc. of A-1
gp120 SHIV SF162 P3 = gp120 SHIV SF162 P3 (SHIV SF162 P3); test: single-point ELISA at EC50 conc. of A-1
gp120 CAAN = gp120 CAAN (HIV (CAAN)); test: single-point ELISA at EC50 conc. of A-1

| Binder | ELISA A450 (BSA) | ELISA A450 (gp120 Bal) | ELISA A450 (gp120 SHIV SF162 P3) | ELISA A450 (gp120 CAAN) |
| --- | --- | --- | --- | --- |
| B1 | 0.07 A450 | 0.93 A450 | 1.02 A450 | 1.01 A450 |
| B2 | 0.06 A450 | 0.7 A450 | 0.52 A450 | 0.6 A450 |
| B3 | 0.06 A450 | 1.08 A450 | 1.23 A450 | 0.98 A450 |
| B4 | 0.06 A450 | 0.95 A450 | 1.1 A450 | 0.9 A450 |
| B5 | 0.06 A450 | 1.02 A450 | 0.69 A450 | 0.78 A450 |
| B6 | 0.06 A450 | 0.98 A450 | 1.08 A450 | 1.04 A450 |
| B7 | 0.06 A450 | 0.86 A450 | 0.94 A450 | 0.9 A450 |
| B8 | 0.1 A450 | 0.89 A450 | 0.24 A450 | 0.43 A450 |
| B9 | 0.06 A450 | 0.69 A450 | 0.53 A450 | 0.63 A450 |
| B10 | 0.06 A450 | 0.9 A450 | 0.75 A450 | 0.84 A450 |
| B11 | 0.09 A450 | 0.93 A450 | 0.57 A450 | 0.75 A450 |
| B12 | 0.06 A450 | 1.04 A450 | 1.19 A450 | 0.96 A450 |
| B13 | 0.06 A450 | 0.92 A450 | 1.15 A450 | 1.07 A450 |
| B14 | 0.06 A450 | 0.95 A450 | 1.03 A450 | 0.94 A450 |
| B15 | 0.06 A450 | 0.97 A450 | 1.13 A450 | 0.94 A450 |
